Here are results for 1 molecule from PMC10311464.

The target in this data set is hnRNP D0 isoform 3, Myc-DDK-tagged (Origene RC200660) (UniProt Q14103-3 1-306). Nature of the data set: EMSA.

B1: rs678849 T allele probe (dsDNA)
DNA 1: TCAAAAGTACCTGCT
DNA 2: AGCAGGTACTTTTGA
For B1, the binding result is given as “binds”.
